From patent EP4545559A2 (INSTITUTO BUTANTAN, dated 2025) come the findings set out here.

Experiment [1] deals with T1, RBD WT (original Wuhan) (SARS-CoV-2, UniProt P0DTC2 319-541).
In experiment [2] the target is T1, RBD WT (original Wuhan). The source holds these as a separate data set.
Experiment [3] addresses T1, RBD WT (original Wuhan). This is another data set of the same source.
Experiment [4] deals with T1, RBD WT (original Wuhan). The source holds these as a separate data set.
Experiment [5] deals with T1, RBD WT (original Wuhan). The source holds these as a separate data set.

Read-outs that look alike come from different tables or passages of the source.

What is called Kd is the free concentration of one partner at which half of the binding sites on the other are occupied at equilibrium, for simple one-to-one binding.

B1: Monoclonal antibody S.9.2.D7 (antibody, V domains shown)
VH: EVQLLESGGGLIQTGGSLRLSCAASGFTFSSYAMSWVRQAPGKGLEWVSVISDSGGSTYYADSVKGRLTISRDNSKNTLYVQMNSLRAEDTAVYYCAKGKGGIAAAGPAFLFDYWGQGTLVTVSS
VL: DIQMTQSPSLLSASAGDRVTISCRMSQGISSYLAWYQQKPGKAPELLISSASTLQSGVPSRFSGSGSGTDFTLTISYLQSEDFATYYCQQYYSFPTTFGGGTKVEIK
notes: also called mAb S.9.2.D7
B1 yielded a dissociation constant Kd with RBD WT (original Wuhan) [1] of 4.85 nM.

B2: Monoclonal antibody S.9.1.C9 (antibody, V domains shown)
VH: QVQLVESGGGVVQPGRSLGLSCAVSGFTFSNYGMDWVRQAPGKGLEWVAVTSYDGSNKYYADSVKGRFTISRDNSKNTLYLQMNSLRTEDTAVYYCAKHGGGPYCGGGTCYLAYFDYWGQGTLVTVSS
VL: DIQMTQSPSSLSASVRDRVTITCQASQDISKFLNWYQQKPGKAPKLLIYDASNLETGVPSRFSGSGSGTDFTFTISSLQPEDIATYYCQQYDNLPITFGQGTRLEIKR
notes: also called mAb S.9.1.C9
B2 came in with a Kd with RBD WT (original Wuhan) [2] of 0.214 nM.

B3: Monoclonal antibody S.9.2.B8 (antibody, V domains shown)
VH: EVQLVETGGGLIQPGGSLRLSCAASGLIVSSNYMTWVRQAPGKGLEWVSVLYSGGTTYYADSVKGRVTISRDNSKNTLYLQVNSLTVADTAVYYCARDLADRGGMDVWGQGTTVTVSS
VL: SYELTQPPSVSVAPGQTARITCGGNNIGSQSVHWYQQKPGQAPVLVVYDDSDRPSGIPERFSGSKSGNMATLTISRVEAGDEADYYCQVWDSSSDHVVFGGGTKLTVL
notes: also called mAb S.9.2.B8
In the case of B3, the dissociation constant Kd with RBD WT (original Wuhan) [3] is 1.99 nM.

B4: Monoclonal antibody S.9.4.F4 (antibody, V domains shown)
VH: QVQLVESGGGVVQPGRSLRLSCAASGFTFSHYGMHWVRQAPGKGLEWVAVILYDGSNEYYADSVKGRFTISRDNSKNTLYLQMNSLRAEDTAVYYCAKGAGTYCSGGNCYVAYFDYWGQGTLVTVSS
VL: AIRMTQSPSSLSASVGDRVTITCQASQDISNYLNWYQQKPGKAPKLLIYDASNLETGVPSRFSGSGSGTDFTVTISSLQPEDFATYYCQQYDNLPLTFGGGTKVEIK
notes: also called mAb S.9.4.F4
Regarding B4, in the experiment with RBD WT (original Wuhan) [4], the Kd is about 0.0336 nM.

B5: Monoclonal antibody S.9.4.C7 (antibody, V domains shown)
VH: QVQLVESGGGVVQPGRSLRLSCAASGFTFRNYAMHWVRQAPGKGLEWVTVISYDGSDKYYADSVKGRFTISRDNSKNTLYLQMNSLRAEDTAVYYCAKDPVGGYCSGGRCYFHSHYFDYWGQGTLVTVSS
VL: NFMLTQPHSVSESPGKTVTISCTRSSGSIASYYVQWYQQRPGSSPTTVISEDNQRPSGVPDRFSGSIDSSSNSASLTISGLKTEDEADYYCQSYDSNNHVIFGGGTKLTVL
notes: also called mAb S.9.4.C7
For B5, binding with RBD WT (original Wuhan) [5] was characterised by a dissociation constant (Kd) of 0.0407 nM.
